Measurements as given in US12365904B2, “Thrombin binding circular aptamer and use thereof” (Hefei University of Technology, priority 2019, dated 2025).

Experiments:
[1] = target: thrombin (Homo sapiens, UniProt P00734); assay: Inhibition of thrombin-catalyzed conversion of fibrinogen to fibrin, absorbance at 350 nm; type: biochemical; details: for IC50: thrombin concentration of 0.1 nM, fibrinogen 2 μM
Description: (§1) Thrombin (0.1 nM) and fibrinogen (2 μM) were incubated with TBCA and Lib of different concentrations separately in buffer systems (total reaction volume of 100 μL) for a certain amount of time (till reaction equilibrium was reached), and the IC50 values of TBCA and Lib were calculated by fitting of the absorbance of the reaction system measured at 350 nm on a microplate reader.
The inhibition of thrombin-catalyzed conversion of fibrinogen to fibrin by TBCA and the random circular nucleic acid (Lib) was compared.
as §1, with “TBCA, M1, M2, M3, M4, M5, D1, D2” for “TBCA”, “D3” for “Lib”

[2] = Incubation in 50% serum at 37° C., electrophoresis, gray values of bands (biostability, half-life); type: in vitro ADME; details: 0.5 μM
Description: Incubation of 0.5 μM of TBCA and TBA each (nucleotide sequences thereof are shown in SEQ ID NO:1 and SEQ ID NO:2, respectively) was performed in 50% serum at a temperature of 37° C. Samples were taken for electrophoresis at 0 min, 1 min, 2 min, 5 min, 10 min, 30 min, 60 min (1 h), 120 min (2 h), 240 min (4 h), 480 min (8 h), 720 min (12 h) and 1440 min (24 h), respectively.

Molecule	IC50 [1] [nM]	other results
D3: Deletion variant of TBCA, SEQ ID NO:10 (DNA ATCTCGACTAGTCATAGGGGGCGCGAACATACGCGGTTGGTGTGGTTGGCTGACAA; DNA, backbone and methylation of C not given here; further chemistry not fully specified)	0.13	
TBA: Existing thrombin binding aptamer, 5′-GGTTGGTGTGGTTGG-3′, specifically targets α-thrombin [reference compound]	1.3	half-life [2]: approximately 2 min
D2: Deletion variant of TBCA, SEQ ID NO:9 (nucleic acid, DNA, backbone and methylation of C not given here; further chemistry not fully specified) DNA: ATCTCGACTAGTCATAGGGGGCGCGAACATACGCGGTTGGTGTGGTTGGCTGACAATACTCGT	0.09	
D1: Deletion variant of TBCA, SEQ ID NO:8 (nucleic acid, DNA, backbone and methylation of C not given here; further chemistry not fully specified) DNA: ATCTCGACTAGTCATAGGGGGCGCGAACATACGCGGTTGGTGTGGTTGGCTGACAATACTCGTGTCTCGGAT	0.15	
TBCA: Circular DNA aptamer, SEQ ID NO:1, 5′ end and 3′ end connected to form a ring (nucleic acid, DNA, backbone and methylation of C not given here; circular: 5' and 3' ends joined to form a ring) DNA: ATCTCGACTAGTCATAGGGGGCGCGAACATACGCGGTTGGTGTGGTTGGCTGACAATACTCGTTTTTGGTGTCTCGGAT	0.15	inhibition effect on thrombin relative to Argatroban ([1]; thrombin 0.1 nM, ratio of IC50 values, TBCA vs Argatroban): 30 times; inhibition effect on thrombin relative to TBA ([1]; thrombin 0.1 nM, ratio of IC50 values, TBCA vs TBA): 13 times; half-life [2]: about 8 hours; half-life ([2]; listed as thrombin binding circular aptamer): up to 8 hours
M5: Substitution variant of TBCA, SEQ ID NO:7, N is a random nucleotide (nucleic acid, DNA, backbone, methylation of C and the base at N not given here; circular: 5' and 3' ends joined to form a ring) DNA: ATCTCGACTAGTCATAGGGGGCGCGAACATACGCGGTTGGTGTGGTTGGCTGACAATACTCGTTTTTGGTNNNNNNNNN	0.11	
M4: Substitution variant of TBCA, SEQ ID NO:6, N is a random nucleotide (nucleic acid, DNA, backbone, methylation of C and the base at N not given here; circular: 5' and 3' ends joined to form a ring) DNA: ATCTCGACTAGTCATAGGGGGCGCGAACATACGCGGTTGGTGTGGTTGGCTGACAATACTCGTNNNNNNNGTCTCGGAT	0.1	
M2: Substitution variant of TBCA, SEQ ID NO:4, N is a random nucleotide (nucleic acid, DNA, backbone, methylation of C and the base at N not given here; circular: 5' and 3' ends joined to form a ring) DNA: ATCTCGANNNNNNNTAGGGGGCGCGAACATACGCGGTTGGTGTGGTTGGCTGACAATACTCGTTTTTGGTGTCTCGGAT	0.36	
M1: Substitution variant of TBCA, SEQ ID NO:3, N is a random nucleotide (nucleic acid, DNA, backbone, methylation of C and the base at N not given here; circular: 5' and 3' ends joined to form a ring) DNA: NNNNNNNCTAGTCATAGGGGGCGCGAACATACGCGGTTGGTGTGGTTGGCTGACAATACTCGTTTTTGGTGTCTCGGAT	0.37	
M3: Substitution variant of TBCA, SEQ ID NO:5, N is a random nucleotide (nucleic acid, DNA, backbone, methylation of C and the base at N not given here; circular: 5' and 3' ends joined to form a ring) DNA: ATCTCGACTAGTCATAGGGGGCGCGAACATACGCGGTTGGTGTGGTTGGCTGACAANNNNNNNTTTTGGTGTCTCGGAT	0.18	
